B1: Homeobox protein SIX6, residues 134 to 184; numbered along this chain, O95475 (parent)
chain: CFKERTRHLLREWYLQDPYPNPSKKRELAQATGLTPTQVGNWFKNRRQRDR

Variants of: B1
Assay: abundance fitness (aPCA) (normalised: wild type 0, dead -1); higher = more abundant; growth selection in yeast, the domain comes from the species named
Conditions: Homo sapiens

Abundance fitness of substitutions, site by site:
L15: P -0.922; F -0.651; K 0.003; V 0.037; Q -0.025; N 0.153; A 0.023; Y -0.185; I -0.019; G -0.112; E -0.067; S -0.03; R -0.106; C 0.49; D -0.418
R26: S -0.182; T -0.429; K -0.024; L 0.039; I -0.382; H -0.121; Q 0.264; C 0.055; E 0.037; Y -0.378; F -0.085; N 0.069; P -0.836; W -0.475; V 0.055
R11: T 0.054; I 0.051; A -0.379; S -0.077; V -0.249; Q 0.268; F -0.63; P -0.958; E 0.125; N 0.27; K 0.066; H -0.487; L 0.008; W -0.129; M -0.019; G -0.119; Y 0.097; D -0.612
E27: R -0.437; M -0.696; P -0.845; K -0.71; W -0.231; L -0.483; Q -0.758; A -0.207; T -0.513; H -0.773; C -0.441; N -0.683; F -0.318; D -0.194; G -0.805; S -0.679; V -0.731
P22: E 0.104; F -0.241; Y -0.424; C 0.146; A -0.109; D 0.307; W -0.281; H -0.467; G 0.087; Q -0.352; T -0.076; L 0.161; R -0.634; V -0.682; K -0.833; S 0.015; I -0.618
L28: E -0.808; C -0.79; M -0.04; F -0.442; G -0.883; I 0.064; H -0.903
Y14: E -0.788; M -0.825; A -0.987; T -1.06; R -0.821; F -0.071; W -0.847; Q -0.918; I -0.64; P -0.983; H -0.974; C -0.994; S -0.888; D -0.882; G -0.571; L -0.634; V -0.838; K -0.683
D17: S -0.706; I -1.01; Q -0.678; V -0.934; H -0.812; F -0.829; C -0.749; L -0.794; E -0.643; Y -0.97; R -0.899; T -0.914; A -0.998; P -0.852; K -0.905; W -0.912; M -0.849
W13: R -0.608; G -0.157; I -0.216; F -0.251; K -0.528; D -0.765; P -0.994; N 0.24; H -0.046; E -0.067; V -0.181; Y -0.319; C 0.011; Q -0.021; M -0.121; L -0.259; A -0.003
K24: P -0.864; M -0.139; F -0.984; W -0.556; N -0.281; C -0.462; V -0.13; A -0.009; E -0.188; R -0.104; H -0.493; Y -0.714; Q 0.074; D -0.197; I -0.051; T -0.058; G -0.374; S -0.192
Q16: H -0.406; L 0.421; M -0.253; V -0.067; P -0.782; Y -0.12; S -0.127; C -0.495; W -0.727; A -0.027; F -0.27; R -0.172
S23: Y -0.726; G -0.328; K -0.529; E 0.186; C -0.444; I -0.579; V -0.35; W -0.517; F -0.272; L -0.276; T -0.436; R -0.813; Q -0.028; N -0.175; D 0.038; H -0.523; A 0.012; M -0.257
K25: S -0.423; Y -0.338; G -0.789; R -0.098; W -0.519; I 0.118; M -0.126; L 0.049; A -0.334; D -0.741; T -0.074; P -0.648; F -0.272; H -0.031; N -0.48; Q 0.158
R7: T 0.01; Q 0.02; S -0.084; V -0.058; Y -0.147
P18: A -0.358; T -0.915; W -0.491; D -0.734; I -0.776; N -0.696; F -1.11; V -0.822; E -0.769; C -0.314; H -0.442; S -0.458; G -0.824; M -0.334; L -0.968; K -0.42; Q -0.234
L9: V -0.328; D -0.739; H -0.626; Q -0.35; Y -0.283; F -0.213; N -0.827; S -0.793; R -0.314; T -0.138; W -1.12; G -0.914; A -0.387; I 0.145; K -0.258; P -0.645; E -0.751; M -0.238
H8: S 0.135; C -0.032; G -0.1
Y19: E -0.41; N -0.132; R -0.177; K -0.239; M -0.312; L -0.488; T -0.088; C -0.469; S -0.508; F -0.138; V -0.625; P -0.673; G -0.867; W 0.052; Q -0.414; H -0.364; A -0.526; I -0.366
N21: F -0.839; M -0.049; P -0.505; C -0.079; D 0.218; I -0.672; H 0.337; T 0.155; G -0.238; E -0.129; V -0.199; W -0.817; S -0.071; K -0.417; Q -0.105; R -0.437; L -0.149; A -0.222; Y -0.725
L10: P -0.793; K -0.993; W -0.892; Q -0.613; V -1.12; T -0.888; M -0.676; N -0.722; H -0.841; G -0.983; S -0.916; F -0.684; C -0.608; E -0.741; A -1.02
E12: W -0.413; G -0.393; A -0.427; L -0.458; T -0.33; H -0.455; R -0.529; Y -0.454; N -0.428; D -0.124; S -0.362; P -1.01; I -0.271; Q -0.365; K -0.504; M -0.204; C -0.262; V -0.389
P20: H -0.693; I -0.466; L -0.411; E -0.969; S -0.724; C -0.7; Q -0.796; W -1.05; M -0.817; G -0.887; R -1.02; A -0.816; V -0.613; T -0.927; Y -0.559; K -0.797

Reference: the Human Domainome abundance scans (Beltran et al. 2025)
